Measurements: patent EP4786492A1

Legend:
[1] = biological target: human DLL3 endogenously expressed on SHP77 and NCI-H82 cells (human) (UniProt Q9NYJ7); assay: FACS SHP77 cells, 4 nM
[2] = biological target: human DLL3 endogenously expressed on SHP77 and NCI-H82 cells (human) (UniProt Q9NYJ7); assay: FACS SHP77 cells, 20 nM
[3] = biological target: human DLL3 endogenously expressed on SHP77 and NCI-H82 cells (human) (UniProt Q9NYJ7); assay: FACS SHP77 cells, 0.8 nM
[4] = biological target: human DLL3 endogenously expressed on SHP77 and NCI-H82 cells (human) (UniProt Q9NYJ7); assay: FACS SHP77 cells, 100 nM
[5] = biological target: human DLL3 endogenously expressed on SHP77 and NCI-H82 cells (human) (UniProt Q9NYJ7); assay: FACS SHP77 cells, 0.16 nM
[6] = biological target: human DLL3 endogenously expressed on SHP77 and NCI-H82 cells (human) (UniProt Q9NYJ7); assay: FACS SHP77 cells, 0.032 nM
[7] = biological target: human DLL3 endogenously expressed on SHP77 and NCI-H82 cells (human) (UniProt Q9NYJ7); assay: FACS SHP77 cells, 0.0064 nM
[8] = biological target: human DLL3 endogenously expressed on SHP77 and NCI-H82 cells (human) (UniProt Q9NYJ7); assay: FACS SHP77 cells, 0.00128 nM

Chain of human DLL3 endogenously expressed on SHP77 and NCI-H82 cells (human) (Q9NYJ7 27-618): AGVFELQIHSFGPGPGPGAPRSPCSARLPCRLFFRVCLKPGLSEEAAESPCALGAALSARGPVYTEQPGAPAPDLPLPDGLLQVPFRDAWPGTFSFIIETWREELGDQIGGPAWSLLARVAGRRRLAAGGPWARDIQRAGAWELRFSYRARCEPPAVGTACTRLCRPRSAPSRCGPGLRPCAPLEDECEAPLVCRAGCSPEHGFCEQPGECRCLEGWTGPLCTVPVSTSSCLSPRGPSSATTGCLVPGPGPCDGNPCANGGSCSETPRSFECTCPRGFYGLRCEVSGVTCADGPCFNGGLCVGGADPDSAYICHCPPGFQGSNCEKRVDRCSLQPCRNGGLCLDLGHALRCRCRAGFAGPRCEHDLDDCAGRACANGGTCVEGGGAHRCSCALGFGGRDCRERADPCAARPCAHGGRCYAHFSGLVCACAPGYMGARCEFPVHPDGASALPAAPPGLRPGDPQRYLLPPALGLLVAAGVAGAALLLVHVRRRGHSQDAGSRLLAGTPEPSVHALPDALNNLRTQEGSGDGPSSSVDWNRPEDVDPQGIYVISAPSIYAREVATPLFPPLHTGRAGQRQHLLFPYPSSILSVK

MFI [1] [MFI]	MFI [2] [MFI]	MFI [3] [MFI]	MFI [4] [MFI]	MFI [5] [MFI]	MFI [6] [MFI]	MFI [7] [MFI]	MFI [8] [MFI]	Binder
563	634	525	521	406	227	135	103	mab007 scFv-hFc (Fc fusion, not shown: small tags and cut ends; a dimerising Fc or GST) scFv (part 1 of 2): DVQITQSPSYLAASPGETITINCRASTSISKYLAWYQERPGKTNKLLIYSGSTLQSGIPSRFRGSGSGTDFTLTISSLEPEDFAMYYCQQHHVYPYTFGGGTKLEIK scFv (part 2 of 2): QVQLQQPGAELVRPGTSVKLSCKASGYTFTSYWMHWVKQRPGQGLEWIGVIDPSDSLANYNQEFKGKATLTVDTSSSTAYMQLSSLTSEDSAVYYCARDSTVVAPMDYWGQGTSVTVSS
664	718	643	876	497	267	152	112	mab006 scFv-hFc (Fc fusion, not shown: small tags and cut ends; a dimerising Fc or GST) scFv (part 1 of 2): DVQITQSPSYLAASPGETITINCRATKSISKYLAWYQEKPGKTNKLLIFSGSTLQSGIPSRFRGSGSGTDFTLTISSLEPEDFAMYYCQQHHEYPYTFGGGTKLEIK scFv (part 2 of 2): QVQLQQPGAELVRPGTSVKLSCKASGYTFTSYWMHWVRQRPGQGLEWIGVIDPSDSLANYNQEFKGKATLTVDTSSSTAYMQLSSLTSEDSAVYYCARDSTVVAPMDYWGQGTSVTVSS
365	468	208	412	130	98	90	82	mab008 scFv-hFc (Fc fusion, not shown: small tags and cut ends; a dimerising Fc or GST) scFv (part 1 of 2): DIVMTQSQKFMSTSVGDRVSITCKASQNVGTAVAWYQQKPGQSPKLLIFSASIRYTGVPDRFTGSGSGTDFTLTISNMQSEDLADYFCQQYSSSPYTFGGGTKLEIK scFv (part 2 of 2): EVQLQQSGPVLVKPGASVKMSCKASGYTFTDYYMNWVKRSHGKSLEWIGIINPYNGGTSYNQKFRGKATLTVDKSSNTAYMELNSLTSEDSAVYYCSRYDYDYDVEGAMDYWGQGTSVTVSS
